Patent US9618524B2, “Method, composition, isolation and identification of a plaque particle and related biomarker” (Plaxgen Inc., priority 2012, dated 2017)

B1: Lactotransferrin (protein)
chain: GRRRSVQWCAVSQPEATKCFQWQRNMRKVRGPPVSCIKRDSPIQCIQAIAENRADAVTLDGGFIYEAGLAPYKLRPVAAEVYGTERQPRTHYYAVAVVKKGGSFQLNELQGLKSCHTGLRRTAGWNVPIGTLRPFLNWTGPPEPIEAAVARFFSASCVPGADKGQFPNLCRLCAGTGENKCAFSSQEPYFSYSGAFKCLRDGAGDVAFIRESTVFEDLSDEAERDEYELLCPDNTRKPVDKFKDCHLARVPSHAVVARSVNGKEDAIWNLLRQAQEKFGKDKSPKFQLFGSPSGQKDLLFKDSAIGFSRVPPRIDSGLYLGSGYFTAIQNLRKSEEEVAARRARVVWCAVGEQELRKCNQWSGLSEGSVTCSSASTTEDCIALVLKGEADAMSLDGGYVYTAGKCGLVPVLAENYKSQQSSDPDPNCVDRPVEGYLAVAVVRRSDTSLTWNSVKGKKSCHTAVDRTAGWNIPMGLLFNQTGSCKFDEYFSQSCAPGSDPRSNLCALCIGDEQGENKCVPNSNERYYGYTGAFRCLAENAGDVAFVKDVTVLQNTDGNNNEAWAKDLKLADFALLCLDGKRKPVTEARSCHLAMAPNHAVVSRMDKVERLKQVLLHQQAKFGRNGSDCPDKFCLFQSETKNLLFNDNTECLARLHGKTTYEKYLGPQYVAGITNLKKCSTSPLLEACEFLRK
B2: Isoform 2 of Ficolin-3 (protein)
chain: QEHPSCPGPRELEASKVVLLPSCPGAPGSPGEKGAPGPQGPPGPPGKMGPKGEPGPRNCRELLSQGATLSGWYHLCLPEGRALPVFCDMDTEGGGWLVFQRRQDGSVDFFRSWSSYRAGFGNQESEFWLGNENLHQLTLQGNWELRVELEDFNGNRTFAHYATFRLLGEVDHYQLALGKFSEGTAGDSLSLHSGRPFTTYDADHDSSNSNCAVIVHGAWWYASCYRSNLNGRYAVSEAAAHKYGIDWASGRGVGHPYRRVRMMLR
B3: Tetranectin (protein)
chain: EPPTQKPKKIVNAKKDVVNTKMFEELKSRLDTLAQEVALLKEQQALQTVCLKGTKVHMKCFLAFTQTKTFHEASEDCISRGGTLGTPQTGSENDALYEYLRQSVGNEAEIWLGLNDMAAEGTWVDMTGARIAYKNWETEITAQPDGGKTENCAVLSGAANGKWFDKRCRDQLPYICQFGIV
B4: Ig gamma-3 chain C region (protein)
chain: ASTKGPSVFPLAPCSRSTSGGTAALGCLVKDYFPEPVTVSWNSGALTSGVHTFPAVLQSSGLYSLSSVVTVPSSSLGTQTYTCNVNHKPSNTKVDKRVELKTPLGDTTHTCPRCPEPKSCDTPPPCPRCPEPKSCDTPPPCPRCPEPKSCDTPPPCPRCPAPELLGGPSVFLFPPKPKDTLMISRTPEVTCVVVDVSHEDPEVQFKWYVDGVEVHNAKTKPREEQYNSTFRVVSVLTVLHQDWLNGKEYKCKVSNKALPAPIEKTISKTKGQPREPQVYTLPPSREEMTKNQVSLTCLVKGFYPSDIAVEWESSGQPENNYNTTPPMLDSDGSFFLYSKLTVDKSRWQQGNIFSCSVMHEALHNRFTQKSLSLSPGK
B5: Platelet factor 4 variant (protein)
chain: FARAEAEEDGDLQCLCVKTTSQVRPRHITSLEVIKAGPHCPTAQLIATLKNGRKICLDLQALLYKKIIKEHLES
B6: Junction plakoglobin (protein)
chain: MEVMNLMEQPIKVTEWQQTYTYDSGIHSGANTCVPSVSSKGIMEEDEACGRQYTLKKTTTYTQGVPPSQGDLEYQMSTTARAKRVREAMCPGVSGEDSSLLLATQVEGQATNLQRLAEPSQLLKSAIVHLINYQDDAELATRALPELTKLLNDEDPVVVTKAAMIVNQLSKKEASRRALMGSPQLVAAVVRTMQNTSDLDTARCTTSILHNLSHHREGLLAIFKSGGIPALVRMLSSPVESVLFYAITTLHNLLLYQEGAKMAVRLADGLQKMVPLLNKNNPKFLAITTDCLQLLAYGNQESKLIILANGGPQALVQIMRNYSYEKLLWTTSRVLKVLSVCPSNKPAIVEAGGMQALGKHLTSNSPRLVQNCLWTLRNLSDVATKQEGLESVLKILVNQLSVDDVNVLTCATGTLSNLTCNNSKNKTLVTQNSGVEALIHAILRAGDKDDITEPAVCALRHLTSRHPEAEMAQNSVRLNYGIPAIVKLLNQPNQWPLVKATIGLIRNLALCPANHAPLQEAAVIPRLVQLLVKAHQDAQRHVAAGTQQPYTDGVRMEEIVEGCTGALHILARDPMNRMEIFRLNTIPLFVQLLYSSVENIQRVAAGVLCELAQDKEAADAIDAEGASAPLMELLHSRNEGTATYAAAVLFRISEDKNPDYRKRVSVELTNSLFKHDPAAWEAAQSMIPINEPYGDDMDATYRPMYSSDVPLDPLEMHMDMDGDYPIDTYSDGLRPPYPTADHMLA
B7: Phosphatidylinositol-glycan-specific phospholipase D (protein)
chain: CGLSTHVEIGHRALEFLQLHNGRVNYRELLLEHQDAYQAGIVFPDCFYPSICKGGKFHDVSESTHWTPFLNASVHYIRENYPLPWEKDTEKLVAFLFGITSHMAADVSWHSLGLEQGFLRTMGAIDFHGSYSEAHSAGDFGGDVLSQFEFNFNYLARRWYVPVKDLLGIYEKLYGRKVITENVIVDCSHIQFLEMYGEMLAVSKLYPTYSTKSPFLVEQFQEYFLGGLDDMAFWSTNIYHLTSFMLENGTSDCNLPENPLFIACGGQQNHTQGSKMQKNDFHRNLTTSLTESVDRNINYTERGVFFSVNSWTPDSMSFIYKALERNIRTMFIGGSQLSQKHVSSPLASYFLSFPYARLGWAMTSADLNQDGHGDLVVGAPGYSRPGHIHIGRVYLIYGNDLGLPPVDLDLDKEAHRILEGFQPSGRFGSALAVLDFNVDGVPDLAVGAPSVGSEQLTYKGAVYVYFGSKQGGMSSSPNITISCQDIYCNLGWTLLAADVNGDSEPDLVIGSPFAPGGGKQKGIVAAFYSGPSLSDKEKLNVEAANWTVRGEEDFSWFGYSLHGVTVDNRTLLLVGSPTWKNASRLGHLLHIRDEKKSLGRVYGYFPPNGQSWFTISGDKAMGKLGTSLSSGHVLMNGTLKQVLLVGAPTYDDVSKVAFLTVTLHQGGATRMYALTSDAQPLLLSTFSGDRRFSRFGGVLHLSDLDDDGLDEIIMAAPLRIADVTSGLIGGEDGRVYVYNGKETTLGDMTGKCKSWITPCPEEKAQYVLISPEASSRFGSSLITVRSKAKNQVVIAAGRSSLGARLSGALHVYSLGSD
B8: Ig heavy chain V-III region WEA (protein)
chain: EVQLVESGGGLVQPGGSLRLSCAASGFTFSSYEMNWVRQAPGKGLEWVSYISSSGSTIYYADSVKGRFTISRDNAKNSLYLQMNSLRAEDTAVYYCAR

Experiments:
Test in all cases: Mass spectroscopy proteomics, semi-quantitative binding affinity of serum proteins (plaqueproteome, Table 2)
Details in all cases: higher number = stronger affinity
Tau plaque particles = system: Tau plaque particles; set-up: species or system human
How it was run: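 Serum or plasma proteins captured on Thioflavin S-labelled Tau plaque particles (Tau-74, Tau-275 oligomers preformed in PBS at 37° C for 2 h; 1 h co-incubation at 37° C) were isolated by FACS sorting, then tryptically digested and identified by MS/MS (Sequest, human UniProt, strict trypsin).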

[1] = biological target: T1, alpha-synuclein plaque particles (Homo sapiens, UniProt P37840)
T1 construct: 140 amino acids polypeptide
How it was run: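 AD-subject plasma or serum (800 μL of 50%) mixed with 30 μg preformed alpha-synuclein aggregates for 1 h at 37 °C; Thioflavin S-positive particles isolated by flow sorting. After reduction, acrylamide alkylation and overnight tryptic digestion, serum proteins identified by MS/MS with Sequest and Scaffold.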

[2] = biological target: T2, Abeta-42 plaque particles (Homo sapiens, UniProt P05067)
T2 construct: Abeta 1-42
How it was run: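 AD patient serum or plasma (50% in PBS) was incubated with Abeta-42 aggregates (30 μg) for 1 h at 37 °C, then stained with Thioflavin S for 30 min. Labeled particles were FACS-sorted, trypsin/Lys-C digested overnight and analyzed by MS/MS. Sequest searched human UniProt; Scaffold/Protein Prophet validated the identifications.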

[3] = system: Low density cholesterol (Chl small) plaque particles; set-up: species or system human
How it was run: (§1)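 Serum or plasma from atherosclerotic subjects, diluted to 50% in PBS, was incubated with cholesterol aggregates (30 μg per 1 mL reaction) at 37° C for 1 hr. Small and large cholesterol plaque particles were sorted by flow cytometry gating, trypsin-digested and analysed by MS/MS against a human UniProt database.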

[4] = system: High Density cholesterol (Chl Large) plaque particles; set-up: species or system human
How it was run: as §1

Row | Molecule | Semi-quantitative analysis of proteins binding to different plaque particles: Tau (Tau plaque particles) | Semi-quantitative analysis of proteins binding to different plaque particles: Synuclein [1] | Semi-quantitative analysis of proteins binding to different plaque particles: Abeta-42 [2] | Semi-quantitative analysis of proteins binding to different plaque particles: Chl small [3] | Semi-quantitative analysis of proteins binding to different plaque particles: Chl Large [4]
1 | B1 | 0 | 0 | 5 | 0 | 0
2 | B2 | 0 | 1 | 0 | 0 | 0
3 | B3 | 0 | 0 | 0 | 1 | 0
4 | B4 | 13 | 14 | 11 | 11 | 15
5 | B5 | 0 | 1 | 0 | 0 | 1
6 | B6 | 0 | 0 | 2 | 0 | 0
7 | B7 | 2 | 0 | 0 | 1 | 1
8 | B8 | 1 | 1 | 2 | 1 | 1
